Four molecules from patent US10787640B2, “Producing mesodermal cell types and methods of using the same” (The Board of Trustees of the Leland Stanford Junior …, priority 2015, dated 2020) can be followed below.

One test concerns hESCs. Nature of the test: Primitive streak (PS) induction from hESCs, qPCR. In kind it is cell-based, human. On the procedure:
As aforementioned, after overnight plating, hPSCs were briefly washed (with DMEM/F12) and then differentiated into either anterior primitive streak (30 ng/mL Activin A+4 μM CHIR99021+20 ng/mL FGF2+100 nM PIK90; for subsequent paraxial mesoderm induction) or mid primitive streak ([…] Activin A+40 ng/mL BMP4+6 μM CHIR99021+20 ng/mL FGF2+100 nM PIK90; for subsequent cardiac mesoderm induction) for 24 hrs.
Total cDNA was diluted 1:10-1:30 in H2O and qPCR was performed with the SensiFAST SYBR Lo-ROX Kit (Bioline) with 10 μL qPCR reactions per well in a 384-well plate: 5.0 μL 2× qPCR Master Mix+4.6 μL cDNA (totaling ˜120 ng of cDNA)+0.4 μL of 10 μM primer stock (5 μM forward+5 μM reverse primers). In general, gene-specific primer pairs were tested for (1) specificity of amplicon amplification (only one peak on a dissociation curve) and (2) linearity of amplicon amplification (linear detection of gene expression in cDNA samples serially diluted seven times over two orders of magnitude, with 90-110% efficiency of amplification deemed acceptably linear). After qPCR plates were prepared by arraying sample-specific cDNAs and gene-specific primers, they were sealed and briefly centrifuged (5 mins). 384-well qPCR plates and their adhesive sealing sheets were obtained from Thermo (AB1384 and AB0558, respectively). qPCR plates were run on a 7900HT Fast Real-Time PCR System (Applied Biosystems) with the following cycling parameters: initial dissociation (95° C., 2 mins) followed by 40 cycles of amplification and SYBR signal detection (95° C. dissociation, 5 seconds; 60° C. annealing, 10 seconds; followed by 72° C. extension, 30 seconds), with a final series of steps to generate a dissociation curve at the end of each qPCR run. During qPCR data analysis, the fluorescence threshold to determine Ct values was set at the linear phase of amplification; other qPCR data analysis methods including qPCR heatmap generation using the GenePattern platform (Broad Institute) were described previously by Loh et al., 2014, the disclosure of which is incorporated herein by reference in its entirety.
E) To assess whether inducing PS in the presence of TGFβ signaling altered its downstream potential to form different kinds of mesoderm, (i) H7 hESCs were differentiated into PS with CHIR99021+FGF2+PIK90 (CFK) for 24 hours in the presence or absence of increasing amounts of Activin (10-100 ng/mL), and then were transferred into paraxial mesoderm induction conditions (A-83-01+CHIR99021+DM3189+FGF2) for 24 hrs, and qPCR was conducted or (ii) H7 hESCs were differentiated into PS with BMP4 (10 ng/mL)+CHIR99021+FGF2+PIK90 (B10CFK) for 24 hours in the presence or absence of increasing amounts of Activin (10-100 ng/mL), and then were transferred into lateral/cardiac mesoderm inductions (A-83-01+BMP4+C59) for 24 hours and qPCR was conducted. […] F) To assess whether inducing PS in the presence of BMP signaling altered its downstream potential to form different kinds of mesoderm, H7 hESCs were differentiated into PS with Activin (10 ng/mL)+CHIR99021+FGF2+PIK90 (A10CFK) for 24 hours in the presence of absence of increasing amounts of BMP4 (1-40 ng/mL), and then were (i) transferred into paraxial mesoderm induction conditions (A-83-01+CHIR99021+DM3189+FGF2) for 24 hrs, and qPCR was conducted or were (ii) transferred into lateral/cardiac mesoderm inductions (A-83-01+BMP4+C59) for 24 hours and qPCR was conducted. […] G) H7 hESCs were differentiated into anterior primitive streak (30 ng/mL Activin+4 μM CHIR99021+20 ng/mL FGF2+100 nM PIK90) in the presence or absence of BMP4 (10 ng/mL) for 24 hours, and then transferred into paraxial mesoderm induction conditions for 24 hours before TBX6 immunostaining was conducted. […]
In general terms: Real-time PCR tracks product formation cycle by cycle.

Test [1] relates to hESC-derived cardiac mesoderm. Nature of the test: Cardiac mesoderm differentiation into cardiovascular fates, qPCR. It is filed as cell-based, human. On the procedure:
Day 2 lateral mesoderm was differentiated into day 4 cardiac mesoderm by treating them with 1 μM A8301+30 ng/mL BMP4+1 μM C59+20 ng/mL FGF2 for 48 hrs, or alternatively, with 1 μM A8301+30 ng/mL BMP4+20 ng/mL FGF2 for 24 hrs followed by 25 ng/mL Activin+30 ng/mL BMP4+1 μM C59 for the next 24 hrs (schema in FIG. 5E; positive effect of mid-stage Activin shown in FIG. 12K). Subsequently, day 4 cardiac mesoderm was briefly washed (DMEM/F12) and treated with 30 ng/mL BMP4+1 μM XAV939+200 μg/mL 2-phospho-ascorbic acid (Sigma) for 48-96 hrs to yield day 6-8 cardiomyocyte-containing populations. Spontaneously contracting cardiomyocyte foci were evident from day 8 onwards.
C) To reveal the possible identity of non-cardiac mesoderm lineages that were contaminating cardiac mesoderm-containing cultures, NKX2.5-GFP hESCs were differentiated towards mid primitive streak (day 1) and were differentiated towards a heterogeneous population containing cardiac mesoderm (day 3) by treatment with SB-505124+BMP4+C59 (without FGF2) on days 2-3 of differentiation. FACS was performed on day 3 to purify either NKX2.5-GFP^+ or NKX2.5-GFP^− cells (top subpanels) which were sorted for qPCR (bottom subpanels). Gene expression was normalized to expression of a gene in the NKX2.5-GFP^+ fraction (dotted line). D) Timecourse of gene expression in hESCs differentiating towards mid primitive streak and lateral mesoderm, with treatment by SB-505124+BMP4+C59 on days 2-3 of differentiation. […] G) To assess whether a stabilized vitamin C analog (ascorbic acid-2-phosphate) (AA2P) enhanced cardiac mesoderm differentiation into cardiomyocytes, day 4 hESC-derived cardiac mesoderm was exposed to BMP4 (30 ng/mL)+XAV939 (1 μM) for 48 hours in the presence or absence of 200 μg/mL AA2P and qPCR was conducted of day 6 populations; qPCR data were normalized such that expression values in the highest-expressing sample was normalized=1.0. […] J) In the mouse embryo, endocardium (progenitors to heart-affiliated endothelium) are marked by transient coexpression of pan-heart marker Nkx2.5 together with endothelial markers (Ferdous et al., 2009; Stanley et al., 2002).

Consider `Cc1cnc(-c2cnc(NCCNc3ccc(C#N)cn3)nc2-c2ccc(Cl)cc2Cl)[nH]1` [CHIR99021, 6-[[2-[[4-(2,4-Dichlorophenyl)-5-(5-methyl-1H-imidazol-2-yl)-2-pyrimidinyl]amino]ethyl]amino]-3-pyridinecarbonitrile], for which the “PS marker expression (qPCR)” value in the test with hESCs (24 hours in A3B3F20, 300 ng/mL WNT3A or 0.5-8 μM CHIR99021) is “broadly induces both anterior (TBX6) and mid/posterior (FOXF1, MESP1) PS markers”. Also, the “differentiation into cardiomyocytes (qPCR day 6)” value in test [1] (BMP4 30 ng/mL with CHIR99021 3 μM, 48 hours) is listed as “fully blocked cardiac mesoderm differentiation into cardiomyocytes”.

With `Cc1cccc(-c2[nH]c(C(C)(C)C)nc2-c2ccc3c(c2)OCO3)n1` [SB-505124, 2-[4-(1,3-Benzodioxol-5-yl)-2-(1,1-dimethylethyl)-1H-imidazol-5-yl]-6-methyl-pyridine], in the test on hESCs (CHIR99021+20 ng/mL FGF2+100 nM PIK90 with 2 μM SB-505124 or 1 μM A-83-01), the PS differentiation entry is on record as “strongly impairs PS differentiation”.

B1: Activin: TGFβ agonist (protein, UniProt P08476 311-426, looked up)
Inhibin beta A chain: GLECDGKVNICCKKQFFVSFKDIGWNDWIIAPSGYHANYCEGECPSHIAGTSGSSLSFHSTVINHYRMRGHSPFANLKSCCVPTKLRPMSMLYYDDGQNIIKKDIQNMIVEECGCS
modifications: Inhibin beta A chain
notes: TGFβ agonist
As for B1, the subsequent cardiomyocyte differentiation result in test [1] (day 3 cardiac mesoderm, BMP4+C59+FGF2 with Activin 25 ng/mL, 24 hours) is listed as “enhanced subsequent cardiomyocyte differentiation”.

B2: BMP4: BMP family ligand, BMP agonist (protein, UniProt P12644 293-408, looked up)
Bone morphogenetic protein 4: SPKHHSQRARKKNKNCRRHSLYVDFSDVGWNDWIVAPPGYQAFYCHGDCPFPLADHLNSTNHAIVQTLVNSVNSSIPKACCVPTELSAISMLYLDEYDKVVLKNYQEMVVEGCGCR
Consider B2, for which, in the test with hESCs (ACFK with LDN193189 250 nM or BMP4 3-100 ng/mL), the “PS formation and anterior-posterior patterning” value was “induced posterior PS”. Further, the “cardiovascular fate commitment (TNNT2, MYH6, MYH7)” value in test [1] (XAV939 1 μM with BMP4 5-30 ng/mL, 48 hours) is recorded as “preferentially promotes commitment to cardiomyocyte fate”. Also, the “cardiomyocyte and endothelial gene expression” value in test [1] (day 4 cardiac mesoderm, BMP4 30 ng/mL, 48 hours) was “upregulation of both cardiomyocyte (myocardium) and endothelial (presumptive endocardium) genes”.
